Reference: paper PMC4139326, “Functional Roles of the Dimer-Interface Residues in Human Ornithine Decarboxylase” (PLoS ONE, 2014)

Molecular target: the molecule itself
Assay: AUC; sedimentation velocity, 0.3, 0.6 and 0.9 mg/ml protein in 50 mM Tris-HCl pH 7.5, 293 K, 42,000 rpm; global fit to a monomer-dimer equilibrium model (SEDPHAT); dimer to monomers

Protein	Kd
human ornithine decarboxylase, wild type (enzyme, ornithine decarboxylase (ODC), human; cDNA cloned into pQE30; Written as the protomer; it associates with itself to the dimer; also called ODC) EEFDCHFLDEGFTAKDILDQKINEVSSSDDKDAFYVADLGDILKKHLRWLKALPRVTPFYAVKCNDSKAIVKTLAATGTGFDCASKTEIQLVQSLGVPPERIIYANPCKQVSQIKYAANNGVQMMTFDSEVELMKVARAHPKAKLVLRIATDDSKAVCRLSVKFGATLRTSRLLLERAKELNIDVVGVSFHVGSGCTDPETFVQAISDARCVFDMGAEVGFSMYLLDIGGGFPGSEDVKLKFEEITGVINPALDKYFPSDSGVRIIAEPGRYYVASAFTLAVNIIAKKIVLKEQTGSDDEDESSEQTFMYYVNDGVYGSFNCILYDHAHVKPLLQKRPKPDEKYYSSSIWGPTCDGLDRIVERCDLPEMHVGDWMLFENMGAYTVAAASTFNGFQRPTIYYVMSGPAWQLMQQFQNPDFPP	100 ± 1 nM
human ornithine decarboxylase Y389D (enzyme, ornithine decarboxylase (ODC), human; cDNA cloned into pQE30) EEFDCHFLDEGFTAKDILDQKINEVSSSDDKDAFYVADLGDILKKHLRWLKALPRVTPFYAVKCNDSKAIVKTLAATGTGFDCASKTEIQLVQSLGVPPERIIYANPCKQVSQIKYAANNGVQMMTFDSEVELMKVARAHPKAKLVLRIATDDSKAVCRLSVKFGATLRTSRLLLERAKELNIDVVGVSFHVGSGCTDPETFVQAISDARCVFDMGAEVGFSMYLLDIGGGFPGSEDVKLKFEEITGVINPALDKYFPSDSGVRIIAEPGRYYVASAFTLAVNIIAKKIVLKEQTGSDDEDESSEQTFMYYVNDGVYGSFNCILYDHAHVKPLLQKRPKPDEKYYSSSIWGPTCDGLDRIVERCDLPEMHVGDWMLFENMGADTVAAASTFNGFQRPTIYYVMSGPAWQLMQQFQNPDFPP	690 ± 5 nM
human ornithine decarboxylase Y331S/Y389D (enzyme, ornithine decarboxylase (ODC), human; cDNA cloned into pQE30) EEFDCHFLDEGFTAKDILDQKINEVSSSDDKDAFYVADLGDILKKHLRWLKALPRVTPFYAVKCNDSKAIVKTLAATGTGFDCASKTEIQLVQSLGVPPERIIYANPCKQVSQIKYAANNGVQMMTFDSEVELMKVARAHPKAKLVLRIATDDSKAVCRLSVKFGATLRTSRLLLERAKELNIDVVGVSFHVGSGCTDPETFVQAISDARCVFDMGAEVGFSMYLLDIGGGFPGSEDVKLKFEEITGVINPALDKYFPSDSGVRIIAEPGRYYVASAFTLAVNIIAKKIVLKEQTGSDDEDESSEQTFMYYVNDGVYGSFNCILSDHAHVKPLLQKRPKPDEKYYSSSIWGPTCDGLDRIVERCDLPEMHVGDWMLFENMGADTVAAASTFNGFQRPTIYYVMSGPAWQLMQQFQNPDFPP	160 ± 1 nM
human ornithine decarboxylase Y331S/Y389D/R277S (enzyme, ornithine decarboxylase (ODC), human; cDNA cloned into pQE30) EEFDCHFLDEGFTAKDILDQKINEVSSSDDKDAFYVADLGDILKKHLRWLKALPRVTPFYAVKCNDSKAIVKTLAATGTGFDCASKTEIQLVQSLGVPPERIIYANPCKQVSQIKYAANNGVQMMTFDSEVELMKVARAHPKAKLVLRIATDDSKAVCRLSVKFGATLRTSRLLLERAKELNIDVVGVSFHVGSGCTDPETFVQAISDARCVFDMGAEVGFSMYLLDIGGGFPGSEDVKLKFEEITGVINPALDKYFPSDSGVRIIAEPGSYYVASAFTLAVNIIAKKIVLKEQTGSDDEDESSEQTFMYYVNDGVYGSFNCILSDHAHVKPLLQKRPKPDEKYYSSSIWGPTCDGLDRIVERCDLPEMHVGDWMLFENMGADTVAAASTFNGFQRPTIYYVMSGPAWQLMQQFQNPDFPP	1030 ± 4 nM
human ornithine decarboxylase Y331S/Y389D/R277S/D332E (enzyme, ornithine decarboxylase (ODC), human; cDNA cloned into pQE30; also called ODC_4M) EEFDCHFLDEGFTAKDILDQKINEVSSSDDKDAFYVADLGDILKKHLRWLKALPRVTPFYAVKCNDSKAIVKTLAATGTGFDCASKTEIQLVQSLGVPPERIIYANPCKQVSQIKYAANNGVQMMTFDSEVELMKVARAHPKAKLVLRIATDDSKAVCRLSVKFGATLRTSRLLLERAKELNIDVVGVSFHVGSGCTDPETFVQAISDARCVFDMGAEVGFSMYLLDIGGGFPGSEDVKLKFEEITGVINPALDKYFPSDSGVRIIAEPGSYYVASAFTLAVNIIAKKIVLKEQTGSDDEDESSEQTFMYYVNDGVYGSFNCILSEHAHVKPLLQKRPKPDEKYYSSSIWGPTCDGLDRIVERCDLPEMHVGDWMLFENMGADTVAAASTFNGFQRPTIYYVMSGPAWQLMQQFQNPDFPP	15900 ± 80 nM
human ornithine decarboxylase Y331S/Y389D/R277S/D332E/R165E (enzyme, ornithine decarboxylase (ODC), human; cDNA cloned into pQE30; also called [ODC_4M]+R165E) EEFDCHFLDEGFTAKDILDQKINEVSSSDDKDAFYVADLGDILKKHLRWLKALPRVTPFYAVKCNDSKAIVKTLAATGTGFDCASKTEIQLVQSLGVPPERIIYANPCKQVSQIKYAANNGVQMMTFDSEVELMKVARAHPKAKLVLRIATDDSKAVCELSVKFGATLRTSRLLLERAKELNIDVVGVSFHVGSGCTDPETFVQAISDARCVFDMGAEVGFSMYLLDIGGGFPGSEDVKLKFEEITGVINPALDKYFPSDSGVRIIAEPGSYYVASAFTLAVNIIAKKIVLKEQTGSDDEDESSEQTFMYYVNDGVYGSFNCILSEHAHVKPLLQKRPKPDEKYYSSSIWGPTCDGLDRIVERCDLPEMHVGDWMLFENMGADTVAAASTFNGFQRPTIYYVMSGPAWQLMQQFQNPDFPP	13500 ± 450 nM
human ornithine decarboxylase Y331S/Y389D/R277S/D332E/D134A (enzyme, ornithine decarboxylase (ODC), human; cDNA cloned into pQE30; also called [ODC_4M]+D134A) EEFDCHFLDEGFTAKDILDQKINEVSSSDDKDAFYVADLGDILKKHLRWLKALPRVTPFYAVKCNDSKAIVKTLAATGTGFDCASKTEIQLVQSLGVPPERIIYANPCKQVSQIKYAANNGVQMMTFASEVELMKVARAHPKAKLVLRIATDDSKAVCRLSVKFGATLRTSRLLLERAKELNIDVVGVSFHVGSGCTDPETFVQAISDARCVFDMGAEVGFSMYLLDIGGGFPGSEDVKLKFEEITGVINPALDKYFPSDSGVRIIAEPGSYYVASAFTLAVNIIAKKIVLKEQTGSDDEDESSEQTFMYYVNDGVYGSFNCILSEHAHVKPLLQKRPKPDEKYYSSSIWGPTCDGLDRIVERCDLPEMHVGDWMLFENMGADTVAAASTFNGFQRPTIYYVMSGPAWQLMQQFQNPDFPP	13300 ± 40 nM
human ornithine decarboxylase Y331S/Y389D/R277S/D332E/K169A (enzyme, ornithine decarboxylase (ODC), human; cDNA cloned into pQE30; also called [ODC_4M]+K169A) EEFDCHFLDEGFTAKDILDQKINEVSSSDDKDAFYVADLGDILKKHLRWLKALPRVTPFYAVKCNDSKAIVKTLAATGTGFDCASKTEIQLVQSLGVPPERIIYANPCKQVSQIKYAANNGVQMMTFDSEVELMKVARAHPKAKLVLRIATDDSKAVCRLSVAFGATLRTSRLLLERAKELNIDVVGVSFHVGSGCTDPETFVQAISDARCVFDMGAEVGFSMYLLDIGGGFPGSEDVKLKFEEITGVINPALDKYFPSDSGVRIIAEPGSYYVASAFTLAVNIIAKKIVLKEQTGSDDEDESSEQTFMYYVNDGVYGSFNCILSEHAHVKPLLQKRPKPDEKYYSSSIWGPTCDGLDRIVERCDLPEMHVGDWMLFENMGADTVAAASTFNGFQRPTIYYVMSGPAWQLMQQFQNPDFPP	1490 ± 40 nM
human ornithine decarboxylase Y331S/Y389D/R277S/D332E/K294A (enzyme, ornithine decarboxylase (ODC), human; cDNA cloned into pQE30; also called [ODC_4M]+K294A) EEFDCHFLDEGFTAKDILDQKINEVSSSDDKDAFYVADLGDILKKHLRWLKALPRVTPFYAVKCNDSKAIVKTLAATGTGFDCASKTEIQLVQSLGVPPERIIYANPCKQVSQIKYAANNGVQMMTFDSEVELMKVARAHPKAKLVLRIATDDSKAVCRLSVKFGATLRTSRLLLERAKELNIDVVGVSFHVGSGCTDPETFVQAISDARCVFDMGAEVGFSMYLLDIGGGFPGSEDVKLKFEEITGVINPALDKYFPSDSGVRIIAEPGSYYVASAFTLAVNIIAKAIVLKEQTGSDDEDESSEQTFMYYVNDGVYGSFNCILSEHAHVKPLLQKRPKPDEKYYSSSIWGPTCDGLDRIVERCDLPEMHVGDWMLFENMGADTVAAASTFNGFQRPTIYYVMSGPAWQLMQQFQNPDFPP	260 ± 60 nM
human ornithine decarboxylase Y331S/Y389D/R277S/D332E/V322D (enzyme, ornithine decarboxylase (ODC), human; cDNA cloned into pQE30; also called [ODC_4M]+V322D) EEFDCHFLDEGFTAKDILDQKINEVSSSDDKDAFYVADLGDILKKHLRWLKALPRVTPFYAVKCNDSKAIVKTLAATGTGFDCASKTEIQLVQSLGVPPERIIYANPCKQVSQIKYAANNGVQMMTFDSEVELMKVARAHPKAKLVLRIATDDSKAVCRLSVKFGATLRTSRLLLERAKELNIDVVGVSFHVGSGCTDPETFVQAISDARCVFDMGAEVGFSMYLLDIGGGFPGSEDVKLKFEEITGVINPALDKYFPSDSGVRIIAEPGSYYVASAFTLAVNIIAKKIVLKEQTGSDDEDESSEQTFMYYVNDGDYGSFNCILSEHAHVKPLLQKRPKPDEKYYSSSIWGPTCDGLDRIVERCDLPEMHVGDWMLFENMGADTVAAASTFNGFQRPTIYYVMSGPAWQLMQQFQNPDFPP	25200 ± 30 nM
human ornithine decarboxylase Y331S/Y389D/R277S/D332E/V322D/D134A (enzyme, ornithine decarboxylase (ODC), human; cDNA cloned into pQE30; also called [ODC_4M]+[V322D/D134A]; sextuple mutant) EEFDCHFLDEGFTAKDILDQKINEVSSSDDKDAFYVADLGDILKKHLRWLKALPRVTPFYAVKCNDSKAIVKTLAATGTGFDCASKTEIQLVQSLGVPPERIIYANPCKQVSQIKYAANNGVQMMTFASEVELMKVARAHPKAKLVLRIATDDSKAVCRLSVKFGATLRTSRLLLERAKELNIDVVGVSFHVGSGCTDPETFVQAISDARCVFDMGAEVGFSMYLLDIGGGFPGSEDVKLKFEEITGVINPALDKYFPSDSGVRIIAEPGSYYVASAFTLAVNIIAKKIVLKEQTGSDDEDESSEQTFMYYVNDGDYGSFNCILSEHAHVKPLLQKRPKPDEKYYSSSIWGPTCDGLDRIVERCDLPEMHVGDWMLFENMGADTVAAASTFNGFQRPTIYYVMSGPAWQLMQQFQNPDFPP	52800 ± 500 nM
human ornithine decarboxylase D134A (enzyme, ornithine decarboxylase (ODC), human; cDNA cloned into pQE30) EEFDCHFLDEGFTAKDILDQKINEVSSSDDKDAFYVADLGDILKKHLRWLKALPRVTPFYAVKCNDSKAIVKTLAATGTGFDCASKTEIQLVQSLGVPPERIIYANPCKQVSQIKYAANNGVQMMTFASEVELMKVARAHPKAKLVLRIATDDSKAVCRLSVKFGATLRTSRLLLERAKELNIDVVGVSFHVGSGCTDPETFVQAISDARCVFDMGAEVGFSMYLLDIGGGFPGSEDVKLKFEEITGVINPALDKYFPSDSGVRIIAEPGRYYVASAFTLAVNIIAKKIVLKEQTGSDDEDESSEQTFMYYVNDGVYGSFNCILYDHAHVKPLLQKRPKPDEKYYSSSIWGPTCDGLDRIVERCDLPEMHVGDWMLFENMGAYTVAAASTFNGFQRPTIYYVMSGPAWQLMQQFQNPDFPP	120 ± 12 nM
human ornithine decarboxylase R165E (enzyme, ornithine decarboxylase (ODC), human; cDNA cloned into pQE30) EEFDCHFLDEGFTAKDILDQKINEVSSSDDKDAFYVADLGDILKKHLRWLKALPRVTPFYAVKCNDSKAIVKTLAATGTGFDCASKTEIQLVQSLGVPPERIIYANPCKQVSQIKYAANNGVQMMTFDSEVELMKVARAHPKAKLVLRIATDDSKAVCELSVKFGATLRTSRLLLERAKELNIDVVGVSFHVGSGCTDPETFVQAISDARCVFDMGAEVGFSMYLLDIGGGFPGSEDVKLKFEEITGVINPALDKYFPSDSGVRIIAEPGRYYVASAFTLAVNIIAKKIVLKEQTGSDDEDESSEQTFMYYVNDGVYGSFNCILYDHAHVKPLLQKRPKPDEKYYSSSIWGPTCDGLDRIVERCDLPEMHVGDWMLFENMGAYTVAAASTFNGFQRPTIYYVMSGPAWQLMQQFQNPDFPP	110 ± 1 nM
